These results are taken from PMC2715101, “Dimerization of Translationally Controlled Tumor Protein Is Essential For Its Cytokine-Like Activity” (PLoS ONE, 2009).

Where a chain is given by its changes, count along the chain named. Names may count otherwise.

The target in data set [1] is Fc-fused human recombinant TCTP (Fc-HrTCTP) (human | rabbit) (UniProt P13693). Kind of data set: native gel or EMSA; Fc fusion proteins on a native gel, apparent molecular weights by a molecular size marker. A general note: A gel shift assay detects complexes by their altered migration in electrophoresis.
The target in data set [2] is Del-N35TCTP (residues 35-172) (rat) (UniProt P63029). In words: SEC; Superdex 200 HR 10/30, 50 mM sodium phosphate pH 7.0, 150 mM NaCl, calibrated with molecular size markers. In general terms: In gel filtration, larger molecules generally elute earlier.
Data set [3] shares this target.
Data set [4] shares this target. In words: non-reducing SDS-PAGE; purified proteins boiled with or without β-ME, 15% gel, coomassie brilliant blue; dimer by intermolecular disulfide bond.
Data set [5] has the same target. In words: cross-linking; sulfhydryl crosslinkers BMOE (five-fold molar excess, 2 h) or BM(PEO)3 (five-fold molar excess, 1 h), room temperature, proteins first reduced with 20 mM DTT; each protein alone and their 1/2:1/2 molar mixture; reducing SDS-PAGE.
Data set [6] has the same target. In words: non-reducing SDS-PAGE; proteins completely reduced with 20 mM DTT, transferred to 50 mM Tris pH 7.5, 1 mM EDTA, then oxidized with 0.1, 1 or 10 mM H2O2.
Data set [7] addresses TCTP in bronchoalveolar lavage fluid (BALF) of mice with airway inflammation (mouse (endogenous in BALB/c BALF)) (UniProt P63028). Kind of data set: non-reducing SDS-PAGE and Western blotting; BALF from OVA-OVA and N11TCTP-N11TCTP mice.
Data set [8] addresses rabbit Fc protein (Fc) (rabbit). In words: native gel or EMSA; Fc fusion proteins on a native gel, apparent molecular weights by a molecular size marker.
Data set [9] concerns the target Del-N35TCTP-C172S (rat) (UniProt P63029). Kind of data set: SEC; Superdex 200 HR 10/30, 50 mM sodium phosphate pH 7.0, 150 mM NaCl, calibrated with molecular size markers.
Data set [10] shares this target.
Data set [11] concerns the molecule itself. In words: cell-based or functional assay.
Data set [12] deals with the molecule itself. Kind of data set: non-reducing SDS-PAGE; purified proteins boiled with or without β-ME, 15% gel, coomassie brilliant blue; dimer by intermolecular disulfide bond.

In the case of “Fc-fused human recombinant TCTP (Fc-HrTCTP) (from UniProt P13693 1-172) (Fc fusion)”, the stoichiometry N (commonly a count of units in the complex or per binding partner) in [1] is 2.
On to “Del-N35TCTP (residues 35-172) (from UniProt P63029 35-172) (domain or fragment)”, for which the stoichiometry N in data set [2], in [4], in data set [5] and in data set [6] was 2 each time. In addition, the IL-8 secretion from BEAS-2B cells by BM(PEO)3-treated DTT-pretreated Del-N35TCTP, percent of DTT-untreated Del-N35TCTP (% of DTT-untreated Del-N35TCTP) in [3] is 122. Moreover, in data set [3], the IL-8 secretion from BEAS-2B cells by BMOE-treated DTT-pretreated Del-N35TCTP, percent of DTT-untreated Del-N35TCTP (% of DTT-untreated Del-N35TCTP) was determined as 108. Besides, the IL-8 secretion from BEAS-2B cells by DTT-treated Del-N35TCTP, percent of DTT-untreated Del-N35TCTP (% of DTT-untreated Del-N35TCTP) in [3] came out at 71.7.
Molecule “TCTP in bronchoalveolar lavage fluid (BALF) of mice with airway inflammation (from UniProt P63028 1-172) (natural protein)” showed a stoichiometry N in data set [7] of 2.
Consider “rabbit Fc protein (Fc) (domain or fragment)”, for which the stoichiometry N in [8] is 2.
“Del-N35TCTP-C172S (from UniProt P63029 35-172) (domain or fragment)” showed a stoichiometry N in the data set with Del-N35TCTP-C172S (rat) [9] of 2. Besides, the IL-8 secretion from BEAS-2B cells, 5 µm/ml protein, 24 h, percent of wild-type (Del-N35TCTP) (% of wild-type) in the data set with Del-N35TCTP-C172S (rat) [10] stood at 36.

B1: Del-N11TCTP-C172S (domain or fragment, rat, UniProt P63029 11-172, looked up)
chain: DELFSDIYKIREIADGLCLEVEGKMVSRTEGAIDDSLIGGNASAEGPEGEGTESTVVTGVDIVMNHHLQETSFTKEAYKKYIKDYMKSLKGKLEEQKPERVKPFMTGAAEQIKHILANFNNYQFFIGENMNPDGMVALLDYREDGVTPFMIFFKDGLEMEKS
For the molecule B1, the “IL-8 secretion from BEAS-2B cells, 5 µm/ml protein, 24 h, percent of wild-type (Del-N11TCTP)” value in data set [11] is 52 % of wild-type. Moreover, the “stoichiometry N” value in data set [12] is 2.

B2: Del-N11TCTP-C28S (domain or fragment, rat, UniProt P63029 11-172, looked up)
chain: B1 chain with C18S, S162C
notes: No stop codon in the reverse primer
For the molecule B2, the “stoichiometry N” value in data set [12] was found to be 2.

B3: Del-N11TCTP (residues 11-172) (domain or fragment, rat, UniProt P63029 11-172, looked up)
chain: B1 chain with S162C
notes: No stop codon in the reverse primer; also called Del-N11HRF
For the molecule B3, in [12], the “stoichiometry N” value was 2.
